# Experimental data as given in patent publication US20230399384A1 (University of Texas, published 2023).
# Read-outs that look alike come from different tables or passages of the source.
# B1: CoV2-01 (antibody, V domains shown)
# VH: QVLLVQSGAEMKKPGASVKVSCKTSGYTFTNSYIHWVRQAPGQGLEWMGWINPISGGTNYAQKFQGRVTMTRDTSINTAYMELSRLRSDDTAVYYCARDRGDYDYGWGTSPFYFDYWGQGTLVTVSS
# VL: DVQMTQSPSSLSASVGDRVTITCRASQSISRYLNWYQQKPGKAPKLLIYAASSLQSGVPSRFSGSGSGADFTLTISSLQPEDFATYYCQQSFSPPITFGQGTRLEIK
# B2: CoV2-29 (antibody, V domains shown)
# VH: QVQLVESGGGLVQPGGSLRLSCAASGFTFSSYWMSWVRQAPGKGLEWVANIKQDGSEKYYVDSVKGRFTISRDNAKNSLYLQMNSLRAEDTAVYYCARMADDDFWRDLPGFYMDVWGKGTTVTVSS
# VL: QAVVTQPASVSGSPGQSITISCTGTSSDVGGYNYVSWYQQHPGKAPKLMIYDVSNRPSGVSNRFSGSKSGNTASLTISGLQAEDEADYYCSSYTSSSTLVFGGGTKVTVL
# B3: CoV2-17 (antibody, V domains shown)
# VH: QVELVESGGGLVKPGGSLRLSCAASGFTFSSYSMNWVRQAPGKGLEWVSSISSSSSYIYYADSVKGRFTISRDNAKNSLYLQMNSLRAEDTAVYYCARGNVDIVATGEVDAFDIWGQGTMVSVSS
# VL: QAVVTQPPSASGTLGQRVTISCSGSSSTIGSNYVYWYQQLPGTAPKLLIYRNNQRPSGVPDRFSGSKSGTSASLAISGLRSEDEADYYCAAWDDSLSGYVFGTGTQLTVL
# B4: CoV2-18 (antibody, V domains shown)
# VH: QVQLVQSGAEVKKPGSSVKVSCKASGGTFSNYGISWVRQAPGQGLEWMGGIIPIFGTANYAQKFQGRVTITADKSTRTAYMELSSLRFEDTAVYYCARDRDDALTGLGLGGGFDIWGQGTMVTVSS
# VL: QAVVTQPPSASGTPGQRVTISCSGSTSNIGTNTANWYQHLPGTAPKLLIYGNDRRPSGVPDRFSGSKSVTSASLAISGLQSEDEADYYCAAWDERLNGYVFGTGTKLTVL
# B5: CoV2-11 (antibody, V domains shown)
# VH: QVELVESGGGLVQPGRSLRLSCEASGFSFDNYAMHWVRQTPGKGLEWVSGITGNSGTIGYADSVKGRFTISRDNAKNSLYLQMNRLRAEDTALYYCAKDTDYDSSGSYFDYWGQGTLVTVSS
# VL: QPVLTQPPSVAVAPGQTARITCGGKNIGRESVHWYQQKPDQAPVLVIYSDGDRPSGTSERFSGSRSGNAATLTISRVEAGDEADYFCQVWDPDTDHYVFGTGTELTVL
# B6: CoV2-20 (antibody, V domains shown)
# VH: QVQLVESGGDLVQPGRSLRLSCAASGFIFDDYAMHWVRQVPGKGPEWVSGVNRDSTYVGQADSVKGRFTISRDNAKKALFLQMDSLRVEDTALYYCVRGMTRVATDAFDFWGQGTMVTVSS
# VL: AIQMTQSPSSLSASVGDRVTITCRASQSINGYLNWYQQKPGKAPKLLIYSASRLQSGVPSRFSGSGSGADYTLTISNLQVEDFATYYCQQSYSTPPVTFGQGTRLEIK
# B7: CoV2-32 (antibody, V domains shown)
# VH: EVQLVESGGGLVQPGRSLRLSCAAPRFTFDDYAIHWVRQVPGKGLEWVSGSSWNSGTIGYAPSVKGRFTISRDNAKNSLFLQMNSLRVEDTALYYCAILPGDYNRVADVFDIWGQGTMVIVSS
# VL: QAVVTQPPSVSGAPGQRVTISCTGSSSNIGAGYDVHWYQQLPGTAPKLLIYGNNNRPSGVPDRFSGSKSGTSASLAITGLQVEDEADYYCQSYDSSLSGYVFGTGTKVTVL
# B8: CoV2-33 (antibody, V domains shown)
# VH: QVQLVESGGGLVQPGRSLRLSCAASRFTFDDHAMHWVRQAPGKGLEWVSGISWNGGIIGYADSVKGRFTISRDNAKNSLYLQMNSLRAEDTALYYCAKGMGFGESNYYAMDVWGQGTMVTVSS
# VL: QSALTQPASVSGSPGQSITISCTGTSSDVGGYNYVSWYQQHPGKAPKLIIYDVSNRPSGVSNRFSGSKSGNTASLTISGLQAEDEAYYYCSSYTSISNLVVFGGGTKVTVL
# B9: CoV2-35 (antibody, V domains shown)
# VH: QVQLHQWGAGLLKPSETLSRTCAVYGGSFSGYSWTWIRQAPGKGLEWIGEINHGGSTKYNPSLESRVTISVDTSKKQFSLELRSVTAADTAVYYCARGYDTNWYGDGYNWFDPWGQGTLVSVSS
# VL: NFMLTQPASVSVAPGKTASITCGGDNIGTKSVHWYRQKPGQAPVLVIYYDSDRPSGIPERFSGSNSGNTATLTISRVEAGDEADYYCQVGDSSSHVVFGGGTKVTVL
# Key:
# [1] = target: T1, SARS-CoV-2 RBD protein (Sino Biological, Cat: 40592-V08B) (SARS-CoV-2, UniProt P0DTC2 319-541)
# [2] = target: T2, sCoV2-RBD (Fc-tagged RBD of SARS-CoV-2 S protein) (SARS-CoV-2; human, UniProt P0DTC2 319-541); assay: ELISA titration on coated sCoV2-RBD
# [3] = target: SARS-CoV-2 S protein on live SARS-CoV-2-mNG reporter virus (SARS-CoV-2, UniProt P0DTC2 14-1273); assay: cell-based or functional assay
# [4] = target: T2, sCoV2-RBD (Fc-tagged RBD of SARS-CoV-2 …)
# [5] = target: T3, sCoV-RBD (Fc-tagged RBD of SARS-CoV S protein) (SARS-CoV; human, UniProt P59594 306-527); assay: phage ELISA, scFv on phage
# [6] = target: T1, SARS-CoV-2 RBD protein (Sino …); assay: BLI (Octet), mAb on Protein A sensor
# S protein of SARS-CoV [7] = target: T4, S protein of SARS-CoV (SARS-CoV, UniProt P59594 14-1195); assay: ELISA, purified IgG1 on coated S protein
# [8] = target: T2, sCoV2-RBD (Fc-tagged RBD of SARS-CoV-2 …); assay: BLI (Octet) blocking of ACE2 binding to captured sCoV2-RBD
# [9] = target: T3, sCoV-RBD (Fc-tagged RBD of SARS-CoV S …); assay: ELISA, purified IgG1 on coated RBD protein
# [10] = target: T1, SARS-CoV-2 RBD protein (Sino …); remark: listed apart in the source
# [11] = target: T2, sCoV2-RBD (Fc-tagged RBD of SARS-CoV-2 …); assay: ELISA titration on coated sCoV2-RBD; remark: listed apart in the source
# [12] = target: T3, sCoV-RBD (Fc-tagged RBD of SARS-CoV S …); assay: BLI (Octet) blocking of ACE2 binding to sCoV-RBD
# [13] = target: T2, sCoV2-RBD (Fc-tagged RBD of SARS-CoV-2 …); assay: ELISA titration on coated sCoV2-RBD; remark: listed apart in the source
# [14] = target: T3, sCoV-RBD (Fc-tagged RBD of SARS-CoV S …); assay: ELISA titration on coated sCoV-RBD
# S protein of SARS-CoV [15] = target: T4, S protein of SARS-CoV; assay: BLI (Octet), CoV2-20 against spike of SARS-CoV
Binder,Kd [1],EC50 [2],"NC50 (neutralisation of reporter SARS-CoV-2, Vero E6 cells) [3]",EC50 [4],binding result [5],Kd [6],koff [6],kon [6],binding result (S protein of SARS-CoV [7]),IC50 [8],binding result [9],also measured
B1,10.8 nM,0.83 nM,5.2 µg/mL,0.83 nM,no binding,10.8 nM,0.000574 s⁻¹,53300 M⁻¹ s⁻¹,"no binding (tested: one concentration, not printed)",9.17 µg/mL,–,–
B2,–,4.05 nM,1.13 µg/mL,4.04 nM,–,–,–,–,"no binding (tested: one concentration, not printed)",2.25 µg/mL,"no binding (tested: one concentration, not printed)",–
B3,1.73 nM,2.24 nM,2.49 µg/mL,2.31 nM,no binding,53.4 nM,0.00101 s⁻¹,18900 M⁻¹ s⁻¹,"no binding (tested: one concentration, not printed)",4.28 µg/mL,–,Kd [10]: 1.73 nM; koff [10]: 5.78e-05 s⁻¹; kon [10]: 33300 M⁻¹ s⁻¹
B4,11.4 nM,2.41 nM,1.93 µg/mL,2.41 nM,no binding,–,–,–,"no binding (tested: one concentration, not printed)",6.03 µg/mL,–,Kd [10]: 11.4 nM; koff [10]: 0.000467 s⁻¹; kon [10]: 41200 M⁻¹ s⁻¹
B5,–,0.6 nM,–,–,–,4.97 nM,0.000306 s⁻¹,61600 M⁻¹ s⁻¹,–,2.97 µg/mL,–,EC50 [11]: 0.59 nM
B6,–,22 nM,–,–,–,29.5 nM,0.000805 s⁻¹,27300 M⁻¹ s⁻¹,–,14.7 µg/mL,–,IC50 [12]: 44.6 µg/mL; EC50 [13]: 5.99 nM; EC50 [14]: 9.96 nM; Kd (S protein of SARS-CoV [15]): 24.4 nM; koff (S protein of SARS-CoV [15]): 0.000676 s⁻¹; kon (S protein of SARS-CoV [15]): 27700 M⁻¹ s⁻¹
B7,–,12.6 nM,–,–,–,1730 nM,0.00158 s⁻¹,915 M⁻¹ s⁻¹,"no binding (tested: one concentration, not printed)",10.4 µg/mL,"no binding (tested: one concentration, not printed)",–
B8,–,10.8 nM,–,–,–,168 nM,0.00137 s⁻¹,8180 M⁻¹ s⁻¹,"no binding (tested: one concentration, not printed)",5.47 µg/mL,"no binding (tested: one concentration, not printed)",–
B9,–,40 nM,–,–,–,–,–,–,"no binding (tested: one concentration, not printed)",–,"no binding (tested: one concentration, not printed)",–
